Data reported in the supplement of paper PMC12455559.

Experiment: purified protein yield per well (BCA); higher = higher soluble expression
Description: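 Candidate PET hydrolases were expressed in E. coli C41(DE3) in 2 mL autoinduction cultures in 24-deep-well plates, Ni-bead purified and released by SUMO protease cleavage on an OT-2 robot. Yield per well was measured by BCA; values below 25 ug (0.1 mg/mL) are below the detection threshold. Melting temperature was measured by differential scanning fluorimetry with Sypro Orange, ramping from 25 C at 0.3 C/step.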

Sequence | purified protein yield per well [µg]
ADNPYQRGPDPTRSSVAASRGTFATAQVGVPAGNGFGGGVIYYPTDTSQGTFGAVAIVPGYTAKWAAEGAWTGPWLASFGLVVIGIDTNSANDFDVARDRQLPAALDYLAQRGSVRGRVDTTRLAAMGHSMGGGGALNAALRRPSSKAAVGSAPYKPSGNLASDRVATLLLAGQNDTTVTPSYVDGLHRSIPATTEKGYVELSGAGHAFPTRANSTQMRVVTPWLKVFLDDDARYSQFLCPLMDSAGINRYGSTCPLLPPDGSTGSSSSLVGSGFGKCLDAGAGQDRSKVTITSCTGGGGQKWVFNTNGTITDPQSGRCLDVDARGTADNTAVATWTCHGESNQVWTRRA [ESM189] | < 25
ADNPYQRGPDPTVASVAATRGPFATAQLTVPAGNGFGGGYLYYPTDTSQGTWGAVAIVPGYSALFANEEAWMGPWLASFGFVVIGVETITRTDGADARATELLAALDYLTQRSAVRDRIDATRLAVMGHSAGGAGTILAAEQRPSLKAGVGLAPGTPGSLSLATDKVPMMVVGGQTDPTVTPAYLDNLYAGMPATTPSDFVQIAGADHLFFTRANNTEMKVLIPWLKIFLDNDTRYTQFLCPSLADPSGISLYRSKCPYLPPGTPSPSPSVSPSNPAAGCTASYRTVGSWPGGFQGEVTVTAGGAALNGWTVGWTLGSGQTITQVWNGTLTTSGSAVTVRNASYSGSVPAGGSITFGFLAAGTPSVPALTCAG [ESM028] | < 25
ADNPYQRGPDPTVASVAATRGTFATAQLTVPAGNGFGGGYIYYPTDTGHGTWGAVAIVPGYSALFADEEAWMGPWLASFGFVVIGVETITRSDGADARATELLAALDYLTQRSAVRDRVDPTRLAVMGHSAGGAGTILAAERRPSLKAAVGLAPGTPGTLSLATDKVPMMVIGGQTDPTVTPAYLDNLYAGMPTTTPSDFVQIAGADHLFFTRANNTEMKVLIPWLKIFLDNDTRYTQFLCPSLADPSGISLYRSKCPYLPPGTTSPSPPSPSPSSPSQSVSPSTPVTGCTAGYRTVGSWPGGFQGEVTVTAGSAAISGWTVGWTLGSGQTITQLWNGALTTSGSAVTVRNASYSGSVPAGGSVVFGFLANGTPSAPVLACASR [ESM027] | < 25
ADNPYQRGPDPTVASVAATRGTFATAQLTVPAGNGFGGGYVYYPTDTSQGTWGAVAIVPGYSARFADEEAWMGPWLASFGFVVIGVETITRTDGADARATQLLAALDYLVGQSPVRDRVDPARLAVMGHSAGGAGTIIAAERRPSLRAAVGLAPGTPGSLSLATDRVPMMVIGGQTDPTVTPSYLDNLYATVPAATPSDFVQIAGADHLFFTRANNTEMKVLIPWLKIFLDSDTRYTSLLCPSLADPSGISLYRSKCPYVPPGTTSPSPSSPSPSSPGPPVPVAACTATYRTVNAWPGGFQGEVVVTAGGTAITGWTVRWTLGSGQTISQLWNGNLTTSGSAVTVDSAAYNGSVPPAGSVVFGFLATGSPTTPAPVCASP [ESM046] | < 25
ADNPYQRGPDPTVASVAATRGTFATAQLTVPPGNGFGGGYIYYPTDTSHGTWGAVAIVPGYSALFANEEAWMGPWLASFGFVVIGVETNTRSDGADARATELLAALDYLTQQSAVRDRVDAGRLAVMGHSAGGAGTILAAERRPALKAAVGLAPGTPGSLSLATDKVPMMVIGGQTDPTVTPAYLDNLYAGMPTTTPSDFVQIAGADHLFFTRANNTEMKVLIPWLKIFLDNDTRYTQFLCPSLADPSGISLYRSKCPYLPPGTTSPSPSSSVTPSSPSSPSSPSTGCTAGYRTVGQWPGGFQGEVTVTAGSAAISGWTVNWTLGSGQSVTQLWNGTLTTSGSAVTVRNASYSGSVPAGGSVVFGYLADGTPSTPLLTCTGQ [ESM032] | < 25
ADNPYQRGPNPTLSSVRAGSGPYATTSTTVARSAVSGFGGGTVYYPTSTSDGTFGAVAMCPGYTATKESLAWFGPRVASHGFVVFIIDTVTTSDQPAQRGDELLAALDHLTRTSSVRSRIDASRLAVAGHSMGGGGTLEAAKDRPGLRAAVPLAPWNTTKNWSGNRVPTLIIGGQSDTIAAVSSHAVPFYTSLPTTPDKAYLE [DP074] | < 25
ADPGTGGGNGGGNTCQEDCGFERGPDPSVSMLEARNGPFSVRTSRVSGLVSGFGGGTIHYPTGQSGTMGAIVVIPGFVSAESSIDWWGSQLASHGFVVMTIDTNTGFDQPPSRARQINAALDYLVDQNRASGSPVNGMIDTSRLGVIGWSMGGGGTLRVATEGRIKAAIPLAPWDTSSRQFRSVQAPTLIFACGSDLIAPVRSHASPFYNALPNGLDKAYFEISRGSHYCANGGNTNNSRLSRLGVSWMKLHLDQDQRYNQFICGPRHESDRSISEYRGNC [ESM181] | < 25
ADSPYQRGPDPTPASVAATRGPFATTQATVPAGNGFNGGYVYYPTDTSQGTWGAVAIVPGYSALFANEEAWMGPWLASFGFVVIGIETNSRSDGADARATQLLAALDYLTRTSPIRDRVDANRLGVMGHSAGGAGTLLASLRRPTLKTAVGLAPGTPGNNLNMSTTQVPTMLLSGQNDGTVTPSYVQGIYNTLPAGVEHAWAELAGNDHLSFTRSNPTEMRLLIPWLKTFLDNDTRYTQFLCPLGNSTGVSRYNATCPLVPPDGPTTPPTSSPPTSAPPTTSAPTTPPPSGAPCTATYRTVNAWSGGFQGEVTVTAGTAAINGWTVTWGLNNGQSISQVWSGTLSTSGSTATIRNVSYNGSLAPGGTTSFGFLGSGTPAATSPTCASP [ESM025] | < 25
AEDNPHERGPAPTQQSIEAEKGPFEVDKVTVPGGDGFAGGTIYFPKDTSKGKFGGVAISPGFMSFEAMVSWYGPRLASQGFVVFTIGTFTPMDIPSSRADQLLASLKFLVEKSPAKDRVDGTRLALMGHSMGGGGTLHAAARTPGLQAAIPLTPWELTSDFSKVQVPTLVFTGQADFVAPASMGKSFYQSIPDSTEKGYVELAGGSHFDPLFPNVTYAKYSISWLKRFVDNDTRYDQFLCPVPKDPKLSAIEETCPLG [DP013] | < 25
AENPYERGPDPTESSIEASRGSFAVSQTSVSSLAVIGFGGGTIYYPTSTAQGTFGAVAISPGFTATQSSIAWIGPRLASQGFVVFTIDTNTIYDQPDSRGDQLLAALDYLTQRSDVRSRIDTSRLAVAGHSMGGGGSLEAAQDRPSLQAAVPLAPWNTQKSWSSLRVPTFIIGGESDTVAPVASHSIPFYTSIPASAEKAYMELDNASHFFPNTANTTMAKYTISWLKRFVDNDTRYEQFLCPAPDDRTISDYRDTCPHA [TEP129] | < 25
AENPYQRGPDPTPASVSANRGSFATTQVSVPSGNGFGGGIIYYPTDTSQGKFGAIAIVPGYTATWAAEGAWMGHWLASFGFVVIGIDTNNRNDWDNARGQQLLAALDYLTQRSSVRDRVDATRAAVMGHSMGGGGAAYASLQRPTLKTSVGLAPASFSQNLTTTRVPTMLLSGQNDGTVTPSSVLNLYNGIPAGVEKAYLELTGAGHGFPTSNNPTMMRVVIPWFKVFIDSDTRYTQFLCPLSNGNGIRSYQSTCPLVPSTPPTSTTTSTTTTTTTTTTTTTTTTSTSTTTTTPQPGGACSAVFRTTNSWPGGYQAEVTVTAGDSGVSGWTTHWTLGSGESVSQVWNGALTVSGSSVSVRNVSYNGSLAPNRSTTFGFIGGGAPPTSPFTCTSP [ESM029] | < 25
AETSYENGPDPTSSSIEAVKGPFEVSTQTVSSYSVRDFGGGTIYYPASSVEGGYGAVAISPGYTARKSSIAWLGSRLASQGFVVFTIDTKTTSDRPASRGDQLLASLDYLTENSRIKDQVDPNRLAVMGHSMGGGGVFEAAKDRPELQGAIAMTPWNTNKTFSEVSTPTLIFGAQDDTVAPVSRHSIPLYSGLPSTTPRTYLELRGASHFAPNRSNTTIAAQSIAWLKAFLDEDRRYDQFLCPGPTTGIDLSDVRTSCPF [DP036] | < 25
AGEQEYRRGPDPTLASLQAQEGPFAYATVTVPDQATYDGGTIYYPTDTSQGTFGAIAISPGYTGYQNSIAWYGRLLASNGFVVFTIDVENTNYDQPNARGEQLLDALDYLTQTSSVRSRIDPNRLAVAGHSMGGGGALRASYLRPSLQASIPLTPYHTWKNWSWVTVPTMIFGAENDTVTEVEDHAEPFYNTLTSAQERFYIELNAPADHLTPTSYDPTIGQYPRAFAKRYIDTDTRYEQFLCPPPAPSSAVEESRRACLGS [DP031] | < 25
AGNPHQRGPDPTPQSIVAEKGPFEVATAPAPAGNGFGGGTIYYPTDTSQGTFAGIAISPGFFGPQFSIDWYGPRLASQGFVVIAITTNALWDFPSQRADQLLAALKYLKQDSPAKDRLDGGRLGVMGHSMGGGGTMEAVLKDHSLKAAIPLTGWGITADYSGVQTPTMIIGAQFDVVAPDESYSIPFYKSLRPDLDKQFLQLAGGTHFSPNLPNTTIAKYSISWLKRFLDDDTRYQQFLCPVQPDPELSAHEATCHS [DP001] | < 25
AGNPYQRGPDPTVASVAATSGPFATAQLSVPPGNGFNGGMIYYPTDTSLGTWGAVAIVPGYTALFANEEAWMGPWLASFGFVVIGVETNSRTDYDVARGTELLAALDYLTQQSPVRDRVDATRLGVIGHSMGGGGVVYATEHRPSLKSAVALAPFSPSQTMATDTVPTMVMGGQNDTVVTPSYLSGLYATMPATTQSDFLQIAGADHVYYTHPNSVEMRILIPWIKTFIDNDTRYTQFLCPALADPTGVSIYQSKCPYVPGGSTPPPPTGGPVHAVGAGKCLDVPNSSTTGGTQLQIYTCDGQSNQTFTHTSTGALSVTDNGTTMCLDANGKGTTSGTKVIIWSCNGQTNQQWNVNSNGTITGVQSGLCLDVSGASTANGALVQLWTCNGQSNQQWKLG [TEP015] | < 25
ANPYERGPAPTLSSIQATTGPFATATTTVPSGNGFGGGTIYYPTDTSQGTFAAIAMSPGFFNTQSAISWYGKRIASQGFVFLTINTNTILDFPDSRATQLLAALDYLTQSSPVSSLIDSSRLGVMGYSMGGGGTLKASKTRPSLEAAVGVAPWHSTKNWSTNTVPSMMLGMQNDTVAPASSHAIPFYNSLPASIHKVYAEVRGASHSTPTSANTPIAQYSIAFLKQELDNDTRYTQFLCPAPAVGGTNPLSAYSSTCPF [DP067] | < 25
APAESAQRAASPYERGPAPTEQSVSAKLGPFAFTQVPAPANASAGFNQGTVYYPNDTGQGTFGAIAITPGFLSPESSIGWLGPRLASNGFVVITLTTNSPVDFPGGRAAQMRAALDWVTKQAPDAIRSRIDPTRLGVMGWSMGGGGTLEVANTHPNIQAAVPLAPWHLTNNWSTVKVPTMIIGAQNDLIAGVGAHSEPFYESLKSAPERAYAEIKGGNHFSVTVDTPLVGKLATSWMKRFIDDDTRYDQFLCPKPTDSTLSEYRDSCPNG [DP035] | < 25
APAHHAAPAHAAAHHHAPFAVRATVVPKTAVKAFGGGVIYTPQDTGKPVLGAVVITPGFTNTNADEKQLGELVASQGFVAFVIDTLDTGDLPDQRATEILAAADYLTGQSAVRSEVSAKDVGLIGYSFGGGGTMQAAQARPSIKAAIGLMPFDFPPASDPDAQYPAYPKLTTPTLVITGQKDDVADPADFGKPAYDSIPAGTPKQYLELKGLDHYAGEHAPVAAIRNAVTAFLKRYLDGNSAYAKFICPAPKVGGPITASYSSCPKG [ESM112] | < 25
